Measured values taken from doi:10.1101/2021.10.15.464611.

Target: anti-PfTRAP monoclonal antibody AKBR-7 (mouse)
Experiment: BLI

Kd: 0.15 nM
B1: Plasmodium falciparum TRAP ectodomain (PfTRAP) (domain or fragment)
chain: RDVQNNIVDEIKYSEEVCNDQVDLYLLMDCSGSIRRHNWVNHAVPLAMKLIQQLNLNDNAIHLYVNVFSNNAKEIIRLHSDASKNKEKALIIIRSLLSTNLPYGRTNLTDALLQVRKHLNDRINRENANQLVVILTDGIPDSIQDSLKESRKLSDRGVKIAVFGIGQGINVAFNRFLVGCHPSDGKCNLYADSAWENVKNVIGPFMKAVCVEVEKTASCGVWDEWSPCSVTCGKGTRSRKREILHEGCTSEIQEQCEEERCPPKWEPLDVPDEPEDDQPRPRGDNSSVQKPEENIIDNNPQEPSPNPEEGKDENPNGFDLDENPENPPNPDIPEQKPNIPEDSEKEVPSDVPKNPEDDREENFDIPKKPENKHDNQNNLPNDKSDRNIPYSPLPPKVLDNERKQSDPQSQDNNGNRHVPNSEDRETRPHGRNNENRSYNRKYNDTPKHPEREEHEKPDNNKKKGESDNKYK
